Data on two molecules can be found in paper PMC4604687, “A novel mechano-enzymatic cleavage mechanism underlies transthyretin amyloidogenesis” (EMBO Molecular Medicine, 2015).

Holding throughout (details): both partners purified
The target of test [1] is T1, S52P transthyretin (S52P TTR), full-length protomer (residues 1–127) (UniProt P02766 21-147, S52P). Description: native MS; equimolar 50 uM light wild-type and heavy S52P TTR in PBS 3 days at 4°C, then overnight with trypsin at 37°C; each tetramer species isolated and activated (tandem MS, Q-TOFII, 40 V).
Test [2] addresses wild-type transthyretin (wild-type TTR) (UniProt P02766 21-147). The test is described as above.
The target in test [3] is T1, S52P transthyretin (S52P TTR), …. Kind of test: native MS; TTR (S52P with or without limited trypsin proteolysis; wild type) in 200 mM ammonium acetate pH 7.4, nano-electrospray; 13+ charge state of the tetramer selected, acceleration voltage ramped 20 to 70 V (collision-induced dissociation).

B1: residue 49–127 fragment of S52P TTR (domain or fragment)
chain: not shown
notes: In the hybrid tetramer experiment the fragment comes from the 13C,15N-labelled S52P TTR; source: limited trypsin proteolysis of recombinant S52P TTR (cleavage at Lys48)
For the molecule B1, the binding result in test [1] and in test [2] was “binds” in each case.

B2: tryptic peptide CPLMVK (peptide)
peptide: CPLMVK
notes: tryptic peptide seen as adduct on the S52P TTR tetramer; source: trypsin digestion of recombinant S52P TTR
For B2, the binding result in test [3] is recorded as “binds”.
